{"source": "paper PMC5574827", "about": "“Improvement of the pharmacological activity of menthol via enzymatic β-anomer-selective glycosylation” (AMB Express, 2017)", "proteins": {"B1": {"name": "BLC (Bacillus licheniformis DSM 13 = ATCC 14580) (protein)", "chain": "MGHKHIAIFNIPAHGHINPTLALTASLVKRGYRVTYPVTDEFVKAVEETGAEPLNYRSTLNIDPQQIRELMKNKKDMSQAPLMFIKEMEEVLPQLEALYENDKPDLILFDFMAMAGKLLAEKFGIEAVRLCSTYAQNEHFTFRSISEEFKIELTPEQEDALKNSNLPSFNFEDMFEPAKLNIVFMPRAFQPYGETFDERFSFVGPSLAKRKFQEKETPIISDSGRPVMLISLGTAFNAWPEFYHMCIEAFRDTKWQVIMAVGTTIDPESFDDIPENFSIHQRVPQLEILKKAELFITHGGMNSTMEGLNAGVPLVAVPQMPEQEITARRVEELGLGKHLQPEDTTAASLREAVSQTDGDPHVLKRIQDMQKHIKQAGGAEKAADEIEAFLAPAGVK", "notes": "His-tagged, pET28a (BamHI/XhoI), expressed in E. coli BL21(DE3), Ni-NTA purified; cloned as in Wu et al. 2012"}}, "substrate": "CC(C)[C@@H]1CC[C@@H](C)C[C@H]1O", "experiment": "LC-MS/MS (MRM) of menthol glucoside, Lineweaver-Burk", "type": "biochemical, Bacillus licheniformis", "conditions": "UDP-glucose as sugar donor (2 mM in the general protocol), 1 mM MgCl2, 50 mM Tris-HCl pH 8.0, 30 °C, 10 min", "data": [{"protein": "B1", "values": [{"measurement": "Km", "value": "1740 ± 600", "unit": "µM"}, {"measurement": "kcat", "value": "1.58 ± 0.0388", "unit": "s⁻¹"}]}]}
